Residue numbers refer to the chain shown, from its start.

Usually EC50 stands for the concentration needed to bring the measured effect to its halfway point. Read a high EC50 as a need for much substance.

B1: Hu01 L5H2 (antibody, human IgG1, kappa, V domains shown)
VH: QVQLVQSGAEVKRPGSSVKVSCKASGYTFSSYWMYWVRQAPGQGLEWIGQIYPGDGDSNYNENFQGRVTITADKSTSTAYMELSSLTSEDSAVYFCTREGYGNRFAYWGQGTLVTVSS
VL: EIVLTQSPALLSLSPGERATLSCSASSSVSYMYWYQQKPGQAPRLLIQLTSNLASGVPARFSGRGSGTDFTLTISSLEPEDFAVYYCQQWSYNPPTFGGGTKVEIKR
B2: Hu01 L3H2 (antibody, human IgG1, kappa, V domains shown)
VH: B1 VH
VL: B1 VL with L11M, G40R, Q41S, L45P, L46W, T71S, P79A, V84T
B3: Hu01-L3H1 (antibody, human IgG1, kappa, V domains shown)
VH: B1 VH with T87R, S91T, F95Y
VL: B1 VL with L11M, G40R, Q41S, L45P, L46W, T71S, P79A, V84T
notes: also called Hu01 antibody L3H1
B4: Hu01 L5H1 (antibody, human IgG1, kappa, V domains shown)
VH: B1 VH with T87R, S91T, F95Y
VL: B1 VL
B5: Mu01 (antibody, V domains shown)
VH: QVQLQQSGAELVRPGSSVKISCKASGYTFSSYWMYWVKQRPGQGLEWIGQIYPGDGDSNYNENFKGKATLTADKSSSTAYMQLSSLTSEDSAVYFCTREGYGNRFAYWGQGTLVTVSA
VL: QIVLTQSPALMSASPGEKVTMTCSASSSVSYMYWYQQKPRSSPKPWINLTSNLASGVPARFSGRGSGTSYSLTISSMEAEDAATYYCQQWSYNPPTFGGGTKLEIK
notes: Murine hybridoma antibody purified from ascites; also called monoclonal antibody Mu01; antibody Mu01
B6: Hu02 L1H1 (antibody, human IgG1, kappa, V domains shown)
VH: EVQLVESGGGLVQPGGSLRLSCAASGFTFTEYHMSWVRQAPGKGLEWVGFIRNRANGYTTEYAASVKGRFTISRDDSKNSLYLQMNSLKTEDTAVYYCARLTMVVAEFDYWGQGTLVTVSS
VL: DIQMTQSPSSLSASVGDRVTITCQASQDINKYLNWYQHKPGKGPKLLIYYTSTLQTGVPSRFSGSGSGTDFTFTVSNLQPEDIATYYCLQYDNLLTFGQGTKLEIKR
B7: Hu02 L2H2 (antibody, human IgG1, kappa, V domains shown)
VH: B6 VH with G57A
VL: B6 VL with D1A, D17E, Q24R
B8: Hu02 L2H5 (antibody, human IgG1, kappa, V domains shown)
VH: B6 VH with G57A, D76N, S87T, K89R
VL: B6 VL with D1A, D17E, Q24R
B9: Hu02 L1H4 (antibody, human IgG1, kappa, V domains shown)
VH: B6 VH with D76N, S87T, K89R
VL: B6 VL
B10: Hu02 L2H6 (antibody, human IgG1, kappa, V domains shown)
VH: B6 VH with N56Q, D76N, S87T, K89R
VL: B6 VL with D1A, D17E, Q24R
B11: Hu02-L1H2 (antibody, human IgG1, kappa, V domains shown)
VH: B6 VH with G57A
VL: B6 VL
B12: Hu02 L1H5 (antibody, human IgG1, kappa, V domains shown)
VH: B6 VH with G57A, D76N, S87T, K89R
VL: B6 VL
B13: Hu02 L2H1 (antibody, human IgG1, kappa, V domains shown)
VH: B6 VH
VL: B6 VL with D1A, D17E, Q24R
B14: Hu02 L1H6 (antibody, human IgG1, kappa, V domains shown)
VH: B6 VH with N56Q, D76N, S87T, K89R
VL: B6 VL
B15: Hu02 L2H3 (antibody, human IgG1, kappa, V domains shown)
VH: B6 VH with N56Q
VL: B6 VL with D1A, D17E, Q24R
B16: Hu02 L1H3 (antibody, human IgG1, kappa, V domains shown)
VH: B6 VH with N56Q
VL: B6 VL
B17: Ch02 (antibody, human IgG1, kappa, V domains shown)
VH: EVKLVESGGGLVQPGGSLRLSCATSGFTFTEYHMSWVRQPPGKALEWLGFIRNRANGYTTEYSASVKGRFTISRDNSQNILYLQMNTLRTEDSATYYCARLTMVVAEFDYWGQGTTLTVSS
VL: DIQMTQSPSSLSASLGGEVTITCKASQDINKYIAWYQHKPGKGPRLLIHYTSTLQPGIPSRFSGSGSGRDYSFSVSNLEPEDIATYYCLQYDNLLTFGAGTKLELKR
notes: also called chimeric antibody Ch02; Ch02 antibody

The target in one test is T1, CD142 (Tissue Factor) on BxPC3 human pancreatic cancer cells (human, UniProt P13726 33-295).
T1 construct: whole, on cells; also called TF
Kind of test: flow cytometry on BxPC3 cells, 3-fold dilutions from 500 nM, FITC goat anti-human detection. As to the method: Digested cells were centrifuged at 1000 rpm for 5 min and blocked with 10% goat serum (purchased from SenBeiJia Biological Technology Co., Ltd., Product No. SRJ-SE-GO012) for 30 min. Then Hu01 antibodies L5H2, L5H1, L3H1, L3H2 prepared in Example 4 were diluted with a 3-fold gradient at the initial concentration of 500 nM. After that, the Hu01 antibody was added to the cells and incubated for 1 h. After washing twice with PBS, FITC-labeled goat anti-human antibody (purchased from Sigma, product No. FS9512-2ML) was added at 1:500 and incubated for 1 h. The results were analyzed by flow cytometry after washing twice with PBS.
For orientation: A flow cytometer gives signals particle by particle.
Regarding B1, the binding result was “binds”.

For B2, the binding result is given as “binds”.

On to B3, for which the binding result is listed as “binds”.

In the case of B4, the binding result is listed as “binds”.

In a further test the target is T1, CD142 (Tissue Factor) on BxPC3 human …. Kind of test: flow cytometry on BxPC3 cells, antibody at 20 ug/mL, FITC goat anti-mouse detection. The protocol:
Digested cells were centrifuged at 1000 rpm for 5 min and blocked with 10% goat serum (purchased from SenBeiJia Biological Technology Co., Ltd., Product No. SRJ-SE-GOO12) for 30 min. Then Mu01 and Mu02 antibodies respectively prepared in Example 4 and Example 5 were added at a final concentration of 20 μg/mL and incubated for 1 h. After washing with Phosphate buffer (PBS, PH 7.2-7.4) for 2 times, FITC-labeled goat anti-mouse antibody (purchased from Jackson ImmunoResearch, No. 115-545-003) was added at 1:500 and incubated for 1 hour. Analyzed the resulting product by flow cytometry after washing with PBS for 2 times.
Turning to B5, the binding result is recorded as “binds”.

For another test the target is unchanged. The test can be described thus: flow cytometry on BxPC3 cells. The protocol: Digested cells were centrifuged at 1000 rpm for 5 min and blocked with 10% goat serum (purchased from SenBeiJia Biological Technology Co., Ltd., Product No. SRJ-SE-GO012) for 30 min. Then Hu02 antibodies L1H1, L1H2, L1H3, L1H4, L1H5, L1H6, L2H1, L2H2, L2H3, L2H5, and L2H6 prepared in Example 5 were serially diluted 3 times with an initial concentration of 500 nM. After that, the Hu02 antibody was added to the cells and incubated for 1 h. After washing twice with PBS, FITC-labeled goat anti-human antibody (purchased from Sigma, product No. FS9512-2ML) was added at 1:500 and incubated for 1 h. The results were analyzed by flow cytometry (BD biosciences, product No. BD Accuri C6 Plus) after washing twice with PBS.
Take B6: the EC50 was 11.6 nM.

Take B7: the response was half-maximal at 18.3 nM (EC50).

Take B8: the EC50 turned out to be 8.12 nM.

As for B9, the EC50 is 6.39 nM.

In the case of B10, the EC50 came to 6.54 nM.

B11 came in with an EC50 of 13.2 nM.

B12 had an EC50 of 9.48 nM.

B13 registered a 50% effective concentration (EC50) of 18.1 nM.

B14 displayed an EC50 of 10.2 nM.

B15 had an EC50 of 25.2 nM.

B16 gave an EC50 of 19.7 nM.

Molecule B17 came in with an EC50 of 19.2 nM.

Source of the values: patent US20260199507A1 (MULTITUDE THERAPEUTICS, published 2026).
